# ± gives the uncertainty stated by the source.
# B1: Ankyrin-1, residues 1405 to 1484; numbered along this chain, P16157 (parent)
# chain: MKMAVISEHLGLSWAELARELQFSVEDINRIRVENPNSLLEQSVALLNLWVIREGQNANMENLYTALQSIDRGEIVNMLE
# Variants of: B1
# Test: abundance fitness (aPCA) (normalised: wild type 0, dead -1); higher = more abundant; growth selection in yeast, the domain comes from the species named
# Details: Homo sapiens
row,Variant,abundance fitness
1,N62F,0.034 ± 0.13
2,S38E,-0.514 ± 0.23
3,S38W,-0.754 ± 0.21
4,V51T,0.068 ± 0.07
5,V51I,0.017 ± 0.11
6,V51G,-0.001 ± 0.05
7,V51H,0.026 ± 0.1
8,Q42R,-0.152 ± 0.068
9,Q42C,-0.061 ± 0.095
10,Q42S,-0.383 ± 0.079
11,Q42V,-0.813 ± 0.1
12,Q42E,-0.926 ± 0.18
13,E8L,-0.383 ± 0.067
14,E8C,-0.624 ± 0.18
15,E8G,-0.273 ± 0.039
16,E8I,-0.559 ± 0.28
17,L10W,-0.872 ± 0.23
18,I28D,-0.584 ± 0.43
19,I28R,-0.571 ± 0.071
20,I28Y,-0.485 ± 0.2
21,I28C,-0.198 ± 0.087
22,I28T,-0.43 ± 0.11
23,S7M,-0.852 ± 0.4
24,S7Q,-0.389 ± 0.12

row,Variant,abundance fitness
1,S7K,-0.786 ± 0.21
2,S7F,-0.126 ± 0.12
3,S7E,-0.261 ± 0.089
4,S7A,0.109 ± 0.055
5,S7D,-0.821 ± 0.16
6,S7H,-0.877 ± 0.39
7,E74L,-0.562 ± 0.11
8,L12Q,-0.233 ± 0.24
9,L12A,0.213 ± 0.085
10,L12H,0.274 ± 0.15
11,L12S,0.243 ± 0.092
12,L12V,0.029 ± 0.087
13,L12C,0.3 ± 0.5
14,L12R,-0.038 ± 0.09
15,L12W,-0.431 ± 0.2
16,L46Y,-0.614 ± 0.39
17,L46T,-0.143 ± 0.085
18,L46E,-0.987 ± 0.49
19,L46C,-0.138 ± 0.2
20,N77W,0.018 ± 0.1
21,N77Q,0.148 ± 0.11
22,S43M,-1.05 ± 0.32
23,S43N,-0.099 ± 0.27
24,S43D,-0.503 ± 0.15

row,Variant,abundance fitness
1,S43V,-0.757 ± 0.11
2,S43W,-0.805 ± 0.17
3,E61G,-0.414 ± 0.25
4,E61D,-0.1 ± 0.28
5,E61R,-0.316 ± 0.16
6,E80A,-0.083 ± 0.081
7,E80F,-0.023 ± 0.1
8,E80Y,-0.048 ± 0.1
9,G55C,-0.389 ± 0.17
10,G55R,-0.394 ± 0.078
11,G55K,-0.666 ± 0.44
12,N48G,-0.236 ± 0.055
13,N48Q,-0.205 ± 0.15
14,N48K,0.098 ± 0.081
15,N48C,-0.495 ± 0.17
16,N48V,-0.474 ± 0.094
17,N48T,-0.544 ± 0.11
18,N48P,-1.07 ± 0.34
19,N57P,-0.061 ± 0.12
20,N57M,-0.075 ± 0.13
21,A4S,-0.259 ± 0.083
22,A15T,0 ± 0.064
23,A15S,0.037 ± 0.06
24,A15H,-0.206 ± 0.21

row,Variant,abundance fitness
1,A15W,-0.288 ± 0.065
2,A66M,-0.332 ± 0.2
3,A66R,-0.746 ± 0.1
4,A66Y,-0.494 ± 0.11
5,A66S,-0.26 ± 0.069
6,D27T,-0.236 ± 0.14
7,D27R,-0.46 ± 0.071
8,D27H,-0.121 ± 0.17
9,D27E,-0.08 ± 0.069
10,D27V,-0.089 ± 0.058
11,D27N,-0.49 ± 0.22
12,Q56E,0.055 ± 0.085
13,Q56I,0.097 ± 0.17
14,Q56H,-0.213 ± 0.26
15,Q56C,-0.167 ± 0.1
16,Q56N,-0.191 ± 0.47
17,L49W,-0.359 ± 0.074
18,L49F,-0.19 ± 0.091
19,L49R,-0.088 ± 0.049
20,L49C,-0.097 ± 0.09
21,L49T,-0.216 ± 0.092
22,G11F,-0.581 ± 0.16
23,G11W,-0.893 ± 0.18
24,G11C,-0.737 ± 0.2

row,Variant,abundance fitness
1,G11N,-0.161 ± 0.21
2,G11Q,-0.276 ± 0.17
3,G11Y,-0.481 ± 0.28
4,G11E,0.195 ± 0.14
5,P36N,-0.104 ± 0.25
6,P36I,-0.459 ± 0.21
7,P36D,-0.165 ± 0.14
8,P36Y,-0.565 ± 0.25
9,N37V,-0.277 ± 0.097
10,N37R,-0.186 ± 0.092
11,N37C,-0.314 ± 0.2
12,N37P,-1.09 ± 0.48
13,N37W,-0.36 ± 0.18
14,N37K,0.023 ± 0.13
15,N37S,-0.064 ± 0.09
16,N37H,-0.366 ± 0.29
17,E34V,-0.308 ± 0.099
18,Q68E,-0.102 ± 0.082
19,Q68M,-0.181 ± 0.094
20,Q68F,-0.178 ± 0.13
21,Q68I,-0.097 ± 0.12
22,Q68A,-0.012 ± 0.058
23,Q68G,-0.152 ± 0.039
24,N29G,-0.133 ± 0.049

row,Variant,abundance fitness
1,N29R,-0.007 ± 0.048
2,N29T,-0.005 ± 0.082
3,N29E,-0.05 ± 0.067
4,L47D,-0.743 ± 0.23
5,L47Y,-0.997 ± 0.34
6,L47M,0.061 ± 0.11
7,L47W,-0.673 ± 0.12
8,S69M,-0.133 ± 0.089
9,A58P,0.195 ± 0.083
10,A58I,-0.008 ± 0.19
11,A58N,0.092 ± 0.19
12,A58F,-0.253 ± 0.2
13,R72P,-0.226 ± 0.13
14,R72C,-0.146 ± 0.14
15,L39D,-0.063 ± 0.18
16,L39Y,0.004 ± 0.13
17,E54Q,-0.118 ± 0.039
18,E54I,-0.931 ± 0.26
19,E54T,-0.455 ± 0.098
20,E54C,-0.198 ± 0.089
21,E54V,-0.412 ± 0.061
22,E54H,-0.294 ± 0.17
23,E54N,-0.043 ± 0.091
24,A45D,-0.306 ± 0.08

row,Variant,abundance fitness
1,A45T,-0.085 ± 0.074
2,A45R,-0.147 ± 0.036
3,A45P,-0.77 ± 0.28
4,A45N,-0.226 ± 0.18
5,W50V,-0.923 ± 0.15
6,W50T,-0.823 ± 0.16
7,W50G,-1.07 ± 0.16
8,W14S,-0.89 ± 0.14
9,W14G,-0.895 ± 0.12
10,W14V,-0.67 ± 0.13
11,W14R,-1.08 ± 0.21
12,W14D,-0.907 ± 0.28
13,V76E,-0.358 ± 0.094
14,V76H,-0.465 ± 0.19
15,V76Q,-0.505 ± 0.12
16,V76F,-0.528 ± 0.27
17,V76P,-0.234 ± 0.12
18,V76T,-0.244 ± 0.067
19,V76I,0.079 ± 0.13
20,R30I,-0.356 ± 0.2
21,R30A,-0.215 ± 0.059
22,R30K,0.054 ± 0.12
23,R30T,-0.226 ± 0.086

# Reference: the Human Domainome abundance scans (Beltran et al. 2025)
